{"source": "patent US20240398973A1", "about": "“ENGINEERED ANTIBODY COMPOUNDS AND CONJUGATES THEREOF” (Eli Lilly and Company, priority 2017, published 2024)", "key": {"[1]": {"test_system": "A549 human lung carcinoma cells", "assay": "PMN-mediated killing of A549 tumor cells (xCelligence)", "type": "cell-based", "settings": "2 hours, mean ± SD, n=4", "experimental": "(§1) Antibody-targeted killing of tumor cells by PMNs is measured using the xCelligence Real Time Cell Analysis system (ACEA Biosciences). This system monitors cell viability in real time by recording electrical impedance between sensors on the growth surface of culture plates. It reports a normalized cell index (NCI) that is normalized to control cells in parallel wells and allows one to control for relative culture viability. NCIs are measured continuously at 15 minute intervals for 24 hours following incubation of tumor cultures with targeted antibodies and addition of human primary PMNs at a 10:1 PMN to tumor cell ratio. Prior to seeding with tumor cells, xCelligence 96-well E-Plates are calibrated for background signal. Each well receives 50 μl of culture medium (RPMI+10% FBS+antibiotics) and the E-plate is equilibrated to 37° C. in a humidified incubator containing the xCelligence plate reader.\n(§2) After equilibration, E-Plate well variations in background are measured. Cultured tumor cell lines are dissociated, counted and diluted to a final density of 1×10^5 cells/ml in culture medium and 100 μl of diluted tumor cells were plated into E-Plate wells. The E-Plate is returned to the xCelligence reader and cell indices are measured in 15 minute intervals overnight to establish baseline.\n(§3) The next day, PMNs are isolated from fresh human blood samples and brought to a final density of 2×10^6 cells/ml in culture medium. Following overnight recording, the E-Plate is removed from the xCelligence reader and 22 μl of 10× antibody solution or buffer is added to designated wells. After 15 minutes, 50 μl of diluted PMNs (1×10^5 total cells) or buffer was added to designated wells. Immediately after PMN addition, the E-Plate is returned to the xCelligence reader and cell indices were measured for up to 72 hours. After completion of the experiment, cell indices are normalized (NCI) to the time point immediately preceding the addition of antibodies.\n(§4) Percent NCI is defined as ((NCI of sample)/(NCI of Tumor Cells Alone)×100). For non-adherent tumor cells (Daudi cells), the xCelligence Immunotherapy Kit-B Cell Killing Assay (ACEA #8100004) is used to tether the tumor cells to E-Plate wells according to manufacturer protocols. Following tethering and background acquisition, the protocols are performed as indicated above.\nAdherent MET(+) A549 human lung carcinoma cells are plated for approximately 24 hours, then incubated with Emibetuzumab-G4-fMLFK-HC-124C-375C or emibetuzumab-G4-UC-HC-124C-375C and exposed to primary human PMNs at 10:1 effector to target cell ratio.\nPercent NCI values represent relative viability of A549 cells following 2 hours of exposure to the stated conditions. Values are given as mean percentage normalized to “+PMN” control±SD; n=4 for all conditions. Statistical significance was determined by one-way ANOVA followed by post-hoc Dunnett's multiple comparisons test vs “+PMN”. NCI, normalized cell index; PMN, primary human polymorphonuclear neutrophils; ns, not significant."}, "[2]": {"test_system": "Daudi B lymphoblast cells", "assay": "PMN-mediated killing of DAUDI tumor cells (xCelligence)", "type": "cell-based, human", "settings": "6 hours, mean ± SD, n=4, normalized to Buffer control", "experimental": "as §1, §2, §3, §4\nNon-adherent, CD20+ Daudi B lymphoblast cells are immobilized with xCelligence Immunotherapy Kit (ACEA #8100004) to tether the tumor cells to E-Plate wells according to manufacturer protocols, and are exposed to conditions shown below in Table 16. Percent NCI values represent relative viability of DAUDI cells following 6 hours of exposure to the stated conditions. Values are given as mean percentage normalized to “Buffer control” ±SD; n=4 for all conditions. Statistical significance was determined by one-way ANOVA followed by post-hoc Dunnett's multiple comparisons test vs “+PMN”."}, "human primary PMNs": {"test_system": "human primary PMNs", "assay": "PMN reactive oxygen species (ROS) production, luminol-amplified chemiluminescence", "type": "cell-based", "settings": "for PMN ROS production: relative to 1000 nM fMLF, AUC 5 minutes (Tables 9, 11)", "method": "Production of ROS by human primary PMNs is measured using luminol-amplified chemiluminescence. Following isolation, PMNs are suspended at 1×10^6 cells/ml in HBSS containing calcium and magnesium (Gibco #14025-092) supplemented with 0.25% human serum albumin (Gemini Bio producst #800-124) and 50 uM Luminol (SigmaAldrich #123072-2.5G). 100 μl of cell suspension (1×10^5 total cells) is then distributed into each well of a 96-well plate suitable for fluorescence measurement (Greiner #655098) and temperature equilibrated to 37° C. for 5 minutes. Following equilibration, 10× solution of antibody conjugate is applied to the wells, achieving a 1× final concentration.\nImmediately after the addition of antibody conjugate, chemiluminescence signal is recorded in a luminometer maintained at 37° C. with 0.01 seconds dwell time per well, 20 seconds total time between sequential plate readings and 45 minutes total run time (PerkinElmer EnVision Multilabel Plate Reader)."}}, "note": "Where “and” joins values, the source holds several entries; their conditions need not be identical. Identical values can stand only once."}
{"molecule": "Emibetuzumab-G4(PAA)-UC-HC-124C-375C: unconjugated emibetuzumab IgG4(PAA) with HC 124C and 375C; HC SEQ ID NO:4, LC SEQ ID NO:5 (antibody, SITE 122 THIOETH - position 122 is cysteine residue modified by thioether bond formation to maleimide-polyethylene glycol (PEG) linker; SITE 370 THIOETH - position 370 is cysteine residue modified by thioether bond formation to maleimide-polyethylene glycol (PEG) linker) heavy: QVQLVQSGAEVKKPGASVKVSCKASGYTFTDYYMHWVRQAPGQGLEWMGRVNPNRRGTTYNQKFEGRVTMTTDTSTSTAYMELRSLRSDDTAVYYCARANWLDYWGQGTTVTVSSASTKGPCVFPLAPCSRSTSESTAALGCLVKDYFPEPVTVSWNSGALTSGVHTFPAVLQSSGLYSLSSVVTVPSSSLGTKTYTCNVDHKPSNTKVDKRVESKYGPPCPPCPAPEAAGGPSVFLFPPKPKDTLMISRTPEVTCVVVDVSQEDPEVQFNWYVDGVEVHNAKTKPREEQFNSTYRVVSVLTVLHQDWLNGKEYKCKVSNKGLPSSIEKTISKAKGQPREPQVYTLPPSQEEMTKNQVSLTCLVKGFYPCDIAVEWESNGQPENNYKTTPPVLDSDGSFFLYSRLTVDKSRWQEGNVFSCSVMHEALHNHYTQKSLSLSLG light: DIQMTQSPSSLSASVGDRVTITCSVSSSVSSIYLHWYQQKPGKAPKLLIYSTSNLASGVPSRFSGSGSGTDFTLTISSLQPEDFATYYCQVYSGYPLTFGGGTKVEIKRTVAAPSVFIFPPSDEQLKSGTASVVCLLNNFYPREAKVQWKVDNALQSGNSQESVTEQDSKDSTYSLSSTLTLSKADYEKHKVYACEVTHQGLSSPVTKSFNRGEC", "values": [{"measurement": "Percent NCI", "setting": "[1]; A549, 3 nM + PMN", "value": "102.3 ± 1.7", "unit": "%"}, {"measurement": "Percent NCI", "setting": "[1]; A549, 3 nM without PMN", "value": "101.3 ± 0.7", "unit": "%"}, {"measurement": "Percent NCI", "setting": "[1]; A549, 10 nM + PMN", "value": "102.5 ± 1.9", "unit": "%"}, {"measurement": "Percent NCI", "setting": "[1]; A549, 10 nM + PMN, listed as emibetuzumab-G4-UC-HC-124C-375C", "value": "102.5±1.9", "unit": "%"}, {"measurement": "Percent NCI", "setting": "[1]; A549, 10 nM without PMN", "value": "100.8 ± 1", "unit": "%"}, {"measurement": "Percent NCI", "setting": "[1]; A549, 30 nM + PMN", "value": "102.7 ± 1.5", "unit": "%"}, {"measurement": "Percent NCI", "setting": "[1]; A549, 30 nM without PMN", "value": "100.1 ± 0.9", "unit": "%"}, {"measurement": "Percent NCI", "setting": "[1]; A549, 100 nM + PMN", "value": "102.9 ± 1.5", "unit": "%"}, {"measurement": "Percent NCI", "setting": "[1]; A549, 100 nM without PMN", "value": "100.8 ± 1.4", "unit": "%"}, {"measurement": "Percent NCI", "setting": "[1]; A549, 300 nM + PMN", "value": "102.3 ± 1.8", "unit": "%"}, {"measurement": "Percent NCI", "setting": "[1]; A549, 300 nM without PMN", "value": "102.8 ± 4.9", "unit": "%"}]}
{"molecule": "AME133-G1(IQ)-UC-HC-124C-378C: unconjugated AME133 (anti-CD20) IgG1(IQ) with HC 124C and 378C; HC SEQ ID NO:8, LC SEQ ID NO:9 (antibody, SITE 128 THIOETH - position 128 is cysteine residue modified by thioether bond formation to maleimide-polyethylene glycol (PEG) linker; SITE 382 THIOETH - position 382 is cysteine residue modified by thioether bond formation to maleimide-polyethylene glycol (PEG) linker) heavy: EVQLVQSGAEVKKPGESLKISCKGSGRTFTSYNMHWVRQMPGKGLEWMGAIYPLTGDTSYNQKSKLQVTISADKSISTAYLQWSSLKASDTAMYYCARSTYVGGDWQFDVWGKGTTVTVSSASTKGPCVFPLAPSSKSTSGGTAALGCLVKDYFPEPVTVSWNSGALTSGVHTFPAVLQSSGLYSLSSVVTVPSSSLGTQTYICNVNHKPSNTKVDKKVEPKSCDKTHTCPPCPAPELLGGPSVFLFPPKIKDTLMISRTPEVTCVVVDVSHEDPEVKFNWYVDGVEVHNAKTKPREEQYNSTYRVVSVLTVLHQDWLNGKEYKCKVSNKALPAPIEKTISKQKGQPREPQVYTLPPSRDELTKNQVSLTCLVKGFYPSDICVEWESNGQPENNYKTTPPVLDSDGSFFLYSKLTVDKSRWQQGNVFSCSVMHEALHNHYTQKSLSLSPG light: EIVLTQSPGTLSLSPGERATLSCRASSSVPYIHWYQQKPGQAPRLLIYATSALASGIPDRFSGSGSGTDFTLTISRLEPEDFAVYYCQQWLSNPPTFGQGTKLEIKRTVAAPSVFIFPPSDEQLKSGTASVVCLLNNFYPREAKVQWKVDNALQSGNSQESVTEQDSKDSTYSLSSTLTLSKADYEKHKVYACEVTHQGLSSPVTKSFNRGEC", "values": [{"measurement": "Percent NCI", "setting": "[2]; 10 nM + PMN", "value": "58.7 ± 13.2", "unit": "%"}, {"measurement": "Percent NCI", "setting": "[2]; 10 nM without PMN", "value": "97.7 ± 1.4", "unit": "%"}, {"measurement": "Percent NCI", "setting": "[2]; 30 nM + PMN", "value": "93.4 ± 22.4", "unit": "%"}, {"measurement": "Percent NCI", "setting": "[2]; 30 nM without PMN, listed as AME133-G1(IQ)-UC-124C-378C", "value": "97.3±1.2% and 97.3 ± 0.6%"}, {"measurement": "Percent NCI", "setting": "[2]; 100 nM + PMN", "value": "114 ± 6.9", "unit": "%"}, {"measurement": "Percent NCI", "setting": "[2]; 100 nM without PMN", "value": "90.9 ± 0.6", "unit": "%"}, {"measurement": "Percent NCI", "setting": "[2]; 300 nM + PMN", "value": "113.2 ± 7.2", "unit": "%"}, {"measurement": "Percent NCI", "setting": "[2]; 300 nM without PMN", "value": "87.7 ± 1.5", "unit": "%"}, {"measurement": "PMN ROS production", "setting": "human primary PMNs; 1 nM", "value": 10.3, "unit": "percentage"}, {"measurement": "PMN ROS production", "setting": "human primary PMNs; 3 nM", "value": 10.6, "unit": "percentage"}, {"measurement": "PMN ROS production", "setting": "human primary PMNs; 10 nM", "value": 10.6, "unit": "percentage"}, {"measurement": "PMN ROS production", "setting": "human primary PMNs; 30 nM", "value": 10.5, "unit": "percentage"}, {"measurement": "PMN ROS production", "setting": "human primary PMNs; 100 nM", "value": 10.3, "unit": "percentage"}, {"measurement": "PMN ROS production, Exposure: Buffer", "setting": "human primary PMNs; 300 nM, Buffer, relative to fMLF, AUC 5 minutes (Table 12a)", "value": 25.3, "unit": "percentage"}, {"measurement": "PMN ROS production, Exposure: Cyclosporin H", "setting": "human primary PMNs; 300 nM, PMNs pre-incubated with 1 uM Cyclosporin H for 30 minutes, relative to fMLF (Table 12a)", "value": 19.7, "unit": "percentage"}, {"measurement": "PMN ROS production", "setting": "human primary PMNs; 300 nM", "value": 11.4, "unit": "percentage"}, {"measurement": "PMN ROS production", "setting": "human primary PMNs; 1000 nM", "value": 13.9, "unit": "percentage"}]}
